{"source": "paper PMC2121072", "biological_target": "full-length GST-hDlg fusion protein (human) (UniProt Q12959)", "sequence (Q12959 whole entry, the tested form may be a part)": "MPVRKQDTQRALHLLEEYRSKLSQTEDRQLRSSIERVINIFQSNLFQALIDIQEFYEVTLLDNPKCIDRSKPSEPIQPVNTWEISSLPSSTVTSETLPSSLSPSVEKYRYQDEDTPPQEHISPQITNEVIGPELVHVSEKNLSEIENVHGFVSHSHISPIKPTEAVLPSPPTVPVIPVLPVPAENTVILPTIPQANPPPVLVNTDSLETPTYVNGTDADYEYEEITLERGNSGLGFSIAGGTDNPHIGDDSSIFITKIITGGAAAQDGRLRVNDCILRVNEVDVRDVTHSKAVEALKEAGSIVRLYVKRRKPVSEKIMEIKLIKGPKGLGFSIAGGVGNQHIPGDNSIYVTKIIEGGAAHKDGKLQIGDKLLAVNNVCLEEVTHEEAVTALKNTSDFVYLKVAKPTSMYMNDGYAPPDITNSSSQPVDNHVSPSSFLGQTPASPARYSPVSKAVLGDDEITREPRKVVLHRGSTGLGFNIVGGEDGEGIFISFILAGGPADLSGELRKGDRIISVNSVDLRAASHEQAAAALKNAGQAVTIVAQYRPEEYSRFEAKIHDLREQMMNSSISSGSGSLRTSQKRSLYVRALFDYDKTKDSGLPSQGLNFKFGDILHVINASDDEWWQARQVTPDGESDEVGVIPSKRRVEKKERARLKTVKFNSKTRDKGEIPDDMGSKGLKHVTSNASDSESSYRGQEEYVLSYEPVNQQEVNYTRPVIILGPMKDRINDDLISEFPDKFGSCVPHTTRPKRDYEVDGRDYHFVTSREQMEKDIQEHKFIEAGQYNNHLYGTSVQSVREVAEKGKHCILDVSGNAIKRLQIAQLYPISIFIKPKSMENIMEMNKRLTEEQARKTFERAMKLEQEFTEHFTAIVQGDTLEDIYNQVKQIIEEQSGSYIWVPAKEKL", "experiment": "pull-down"}
{"substance": "125I-labeled 30-kD amino-terminal domain of protein 4.1 (domain or fragment)", "values": [{"measurement": "Kd", "result": 5.3, "unit": "nM"}]}
